Experimental findings from publication PMC5374107, “Structure-Guided Identification of a Family of Dual Receptor-Binding PfEMP1 that Is Associated with Cerebral Malaria” (Cell Host & Microbe, 2017) are described below.

Holding throughout (conditions): both partners purified
The target of one test is T1, ICAM-1D1D5-Fc (human).
T1 construct: intercellular adhesion molecule 1 (ICAM-1), domains D1 to D5; captured on protein A by its Fc; also called ICAMD1D5; ICAM-1-Fc; source: HEK cells, recombinant (Bengtsson et al., 2013a)
As to the kind of experiment: SPR; Biacore T-200; ICAM-1D1D5 Fc immobilized to 1,400 RU on a CM5 chip pre-coupled to Protein A; head structures injected, two-fold dilutions 4 nM to 500 nM, 40 µL/min, 240 s association, 600 s dissociation; 10 mM HEPES pH 8.0, 300 mM NaCl, 0.05% Tween-20; one-site kinetic model. Background: Surface plasmon resonance follows binding to a sensor surface in real time, without labels.

Test [1] deals with T2, Recombinant His-tagged EPCR (human, UniProt Q9UNN8 18-238, biotin (biotinylated by BirA)).
T2 construct: endothelial protein C receptor (EPCR); also called endothelial protein C receptor; source: S2 cells, purified and biotinylated (Lau et al., 2015)
T2 sequence: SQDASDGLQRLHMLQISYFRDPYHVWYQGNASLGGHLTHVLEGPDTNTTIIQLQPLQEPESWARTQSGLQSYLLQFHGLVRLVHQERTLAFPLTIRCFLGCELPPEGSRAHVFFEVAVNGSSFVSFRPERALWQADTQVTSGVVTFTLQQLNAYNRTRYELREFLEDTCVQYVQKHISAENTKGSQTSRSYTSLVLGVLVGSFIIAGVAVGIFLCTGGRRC
The test can be described thus: SPR; Biacore T-200; biotinylated EPCR immobilized to 650 RU on a CAP chip (Biotin Capture Kit); head structures injected, two-fold dilutions 500 nM to 4 nM, 30 µL/min, 240 s association, 720 s dissociation; 10 mM HEPES pH 7.4, 300 mM NaCl, 0.05% Tween-20, 2 mg/ml ssDNA; one-site kinetic model.

Test [2] deals with T2, Recombinant His-tagged EPCR. As to the kind of experiment: SPR; Biacore T-200; dual binding: ICAM-1D1D5 Fc immobilized (1,800, 2,100 or 1,500 RU) on Protein A CM5 chip, head structure injected at 250 nM for 240 s, then EPCR injected, two-fold dilutions 250 nM to 16 nM, 30 µL/min, 240 s association, 720 s dissociation; 10 mM HEPES pH 8.0, 300 mM NaCl, 0.05% Tween-20; one-site kinetic model.

B1: PF11_0521 head structure (NTS-DBLα1.7-CIDRα1.4-DBLβ3) (domain or fragment)
chain: MGNAIPATPDPIFINESYKSARNVLENVARLIKAKATKDVKRHRNVLKGNLRNAKFYHPFSKERPYYKSACDLDYRFHSNIWSGDNTYRHPCAGRNRNRFSYEGEAECRISRITGNKTEHGACAPYRRRHLCDYIFHQVNDNYIKTSDDLLGNLLVTAKYEGESIVNSYANSGMFNVCTALARSFADIGDIIRGKDLYLGNGDYKEKVSNNLRAIFNKIYENLNDPKLKKHYQKDAPNYYKLRDDWWNANREDVWKALTCNAPYEAQYFIKPSDKEHSFSSEYCGHYKNGDPLTNLDYVPQFLRWFEEWAEEFCRIKKIKLENVKNACRDEKKRKYCSLNGFDCTQTIWKKKVFGRGNDCTNCSFKCFPYEIWLGNQREAFRKQKEKYAKEIEAYVTNRGIPKSSINNGYYKDFYNKLKEKTYNTVDEFINLLNEGRYCKKQKPEEENIDFIKTGEKGTFYRSDYCQVCPDCGVDCSSGTCIEKKDDINCGKKINYEPPHGVKPIDIIVLYSGNEEGEITKRLSEFCTDSSNNKGKNYEQWKCYYKNGDDNKCKMVKNSGNNITEEKIISFDEFFYVWVRKLLIDSIKWENELNNCIDNTSTHCNKECNKNCECFDKWVKKKEDEWKNVKNVFENKNGTSHNYYNKLNGLFKGFFFEVMDKLNKDETKWNKLIESLRTKIDSSKENIGTGNTQDTIKVLLDHLKETATICKDNNTNEACETSRNRKTNPCAKPHGKKLATVKQIAQYYKRKAYIQLNERGSRSALKGDASQGQYDRGGKADDFKTKLCEINEKHSNARSNSLNPCNGKDNNKVRFNVGTPWQSGEKIATATDVYLPPRRQHFCTSNLEYLINGGHQAILNVKNGKINHSFLGDVLLAAKYQAQHTMKDYKSKNDKEGICRAIRYSFADIGDIIKGTDLWDKDGGEIKTQNHLVTIFDKIKAQLPKDIKGKYTGTKHLELRKDWWEANRDQVWKAMQCGNDNPCSGESDHTPLHDYIPQRLRWMTEWAEWYCKEQSRLYDKLKVCEECMRKGESCTKGSGECATCKEACEEYNKEIKKWEQQWDAISYKYLMLYAKARITAINGGPGYYNTEVQEEDKPVVDFLYNLYLQNGGKKGPPPDTHRVKALIARVKRDAARNRVKRADGSSATRVTATTTITPYSTAAGYIHQEAHIGDCQKQTQFCKNKNGSDVSDTEADPTYAFRDKPHDHDTACKC
Broadly, the Kd is the equilibrium constant for the complex coming apart. A word on the koff: it is a measure of how fast the partners let go of each other. In general, kon refers to the second-order rate constant of association. In the test with ICAM-1D1D5-Fc, B1 showed a Kd of 2.33 nM, a koff of 5.41e-05 s⁻¹ and a kon of 23200 M⁻¹ s⁻¹. In test [1], the Kd stood at 1.18 nM, the koff is 4.5e-05 s⁻¹ and the kon was found to be 38100 M⁻¹ s⁻¹.

B2: ICAM-1D1D5-Fc::PF11_0521 head structure complex (complex)
chain 1: QTSVSPSKVILPRGGSVLVTCSTSCDQPKLLGIETPLPKKELLLPGNNRKVYELSNVQEDSQPMCYSNCPDGQSTAKTFLTVYWTPERVELAPLPSWQPVGKNLTLRCQVEGGAPRANLTVVLLRGEKELKREPAVGEPAEVTTTVLVRRDHHGANFSCRTELDLRPQGLELFENTSAPYQLQTFVLPATPPQLVSPRVLEVDTQGTVVCSLDGLFPVSEAQVHLALGDQRLNPTVTYGNDSFSAKASVSVTAEDEGTQRLTCAVILGNQSQETLQTVTIYSFPAPNVILTKPEVSEGTEVTVKCEAHPRAKVTLNGVPAQPLGPRAQLLLKATPEDNGRSFSCSATLEVAGQLIHKNQTRELRVLYGPRLDERDCPGNWTWPENSQQTPMCQAWGNPLPELKCLKDGTFPLPIGESVTVTRDLEGTYLCRARSTQGEVTRKVTVNVLSPRYE
chain 2: MGNAIPATPDPIFINESYKSARNVLENVARLIKAKATKDVKRHRNVLKGNLRNAKFYHPFSKERPYYKSACDLDYRFHSNIWSGDNTYRHPCAGRNRNRFSYEGEAECRISRITGNKTEHGACAPYRRRHLCDYIFHQVNDNYIKTSDDLLGNLLVTAKYEGESIVNSYANSGMFNVCTALARSFADIGDIIRGKDLYLGNGDYKEKVSNNLRAIFNKIYENLNDPKLKKHYQKDAPNYYKLRDDWWNANREDVWKALTCNAPYEAQYFIKPSDKEHSFSSEYCGHYKNGDPLTNLDYVPQFLRWFEEWAEEFCRIKKIKLENVKNACRDEKKRKYCSLNGFDCTQTIWKKKVFGRGNDCTNCSFKCFPYEIWLGNQREAFRKQKEKYAKEIEAYVTNRGIPKSSINNGYYKDFYNKLKEKTYNTVDEFINLLNEGRYCKKQKPEEENIDFIKTGEKGTFYRSDYCQVCPDCGVDCSSGTCIEKKDDINCGKKINYEPPHGVKPIDIIVLYSGNEEGEITKRLSEFCTDSSNNKGKNYEQWKCYYKNGDDNKCKMVKNSGNNITEEKIISFDEFFYVWVRKLLIDSIKWENELNNCIDNTSTHCNKECNKNCECFDKWVKKKEDEWKNVKNVFENKNGTSHNYYNKLNGLFKGFFFEVMDKLNKDETKWNKLIESLRTKIDSSKENIGTGNTQDTIKVLLDHLKETATICKDNNTNEACETSRNRKTNPCAKPHGKKLATVKQIAQYYKRKAYIQLNERGSRSALKGDASQGQYDRGGKADDFKTKLCEINEKHSNARSNSLNPCNGKDNNKVRFNVGTPWQSGEKIATATDVYLPPRRQHFCTSNLEYLINGGHQAILNVKNGKINHSFLGDVLLAAKYQAQHTMKDYKSKNDKEGICRAIRYSFADIGDIIKGTDLWDKDGGEIKTQNHLVTIFDKIKAQLPKDIKGKYTGTKHLELRKDWWEANRDQVWKAMQCGNDNPCSGESDHTPLHDYIPQRLRWMTEWAEWYCKEQSRLYDKLKVCEECMRKGESCTKGSGECATCKEACEEYNKEIKKWEQQWDAISYKYLMLYAKARITAINGGPGYYNTEVQEEDKPVVDFLYNLYLQNGGKKGPPPDTHRVKALIARVKRDAARNRVKRADGSSATRVTATTTITPYSTAAGYIHQEAHIGDCQKQTQFCKNKNGSDVSDTEADPTYAFRDKPHDHDTACKC
Regarding B2, in test [2], the Kd was 11.4 nM, the koff stood at 0.000195 s⁻¹ and the kon stood at 17200 M⁻¹ s⁻¹.
